± gives the standard deviation.
Assay: protein stability index of a GFP-peptide fusion (GPS, HEK-293T) (PSI 1-6); higher = more stable
[1] = treatment: DMSO, c terminus: a fixed tail appended
[2] = treatment: MLN4924 1 uM, 8 h, c terminus: a fixed tail appended
[3] = treatment: DMSO, c terminus: native
[4] = treatment: MLN4924 1 uM, 8 h, c terminus: native
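Also: 24-mer peptide tiles fused after GFP, lentivirally expressed, FACS-sorted into six equal bins by GFP/DsRed ratio, decoded by Illumina sequencing, PSI is the read-weighted mean bin number.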

Row | Sequence | protein stability index [1] | protein stability index [2] | protein stability index [3] | protein stability index [4]
1 | WQLLLFLCATHFGEPLEKVASVGN [KISS1] | 2.78 ± 1.2 | 2.29 ± 0.35 |  | 
2 | NEFLCTLQKKLDNLQCLYCEKTFR [ZNF277] | 2 ± 0.4 | 2.38 ± 0.32 |  | 
3 | DAPVPDCLGVHCDFHQGLLSFYNA [FSD1] | 2.41 ± 0.094 | 2.52 ± 0.26 |  | 
4 | NVVTCAAGILSNLTCNNYKNKMMV [CTNNB1] | 2.69 ± 0.41 | 2.46 ± 0.24 |  | 
5 | YAILDEKKSELLQRITQEQEKKLS [TRIM63] | 4.35 ± 0.17 | 4.52 ± 0.13 |  | 
6 | VLSILHATLPGIFMLLLIFFAFLH [SOAT2] | 2.87 ± 0.32 | 3.17 ± 0.41 |  | 
7 | DYWNLQKDYYPINESLASLPLRVS [CLPTM1] | 2.4 ± 0.2 | 2.52 ± 0.17 |  | 
8 | SDDNAKLPCFNGRVVSWLVSAEGS [DVL3] | 3.07 ± 0.19 | 3.06 ± 0.26 |  | 
9 | TQGLPWRFEELLTCSHWPSFFPS [TEX19] |  |  | 2.78 ± 0.46 | 2.24 ± 0.87
10 | VAKLESECLKRQGQREPGSLSRNN [FBXO34] | 4.77 ± 0.098 | 4.75 ± 0.35 |  | 
11 | GGPGGPGSDKQQQQQHIECVVCGD [NR2F2] | 5.02 ± 0.21 | 5.02 ± 0.45 |  | 
12 | TEALILQLFSQIGPCKNCKMIMDT [TIA1] | 2.75 ± 0.37 | 2.53 ± 0.41 |  | 
13 | GILTFLAVLGRYVPGLLLSYLMLV [RETREG3] | 3.42 ± 0.28 | 2.95 ± 0.72 |  | 
14 | PEEFSLLKLQTKDGHRPEWTFYPR [SPATS1] | 2.76 ± 0.32 | 2.87 ± 0.49 |  | 
15 | SSSCAVHDLIFWRDVKKTGFVFGT [RTN3] | 2.71 ± 0.52 | 2.58 ± 0.52 |  | 
16 | AVAFMPEDITKGTQSLPTASASKF [AUP1] | 4.22 ± 0.18 | 4.3 ± 0.16 |  | 
17 | IVMCVQIKCFHEIITIGYNVYHSY [CDS2] | 3.32 ± 0.42 | 3.36 ± 0.66 |  | 
18 | LHELSSRVEASHLTTSQERELGIR [FBF1] | 4.46 ± 0.17 | 4.36 ± 0.25 |  | 
19 | ASSVESTLPVLEASSWKKQVSHDF [FBXO34] | 3.56 ± 0.49 | 3.67 ± 0.62 |  | 
20 | ATPRQVPSLQHLCRMSIRRVMPTQ [WSB1] | 3.83 ± 0.23 | 3.77 ± 0.15 |  | 
21 | IDFSPYLEPLGAPQAPAPATATDT [CEBPB] | 4.42 ± 0.31 | 4.35 ± 0.37 |  | 
22 | LLVYDITNRWSFDGIDRWIKEIDE [RAB40C] | 2.05 ± 0.22 | 2.18 ± 0.45 |  | 
23 | EIIELRRTVNALEIELQAQHNLRY [KRT33B] | 2.21 ± 0.22 | 2.08 ± 0.14 |  | 

Row | Sequence | protein stability index [1] | protein stability index [2] | protein stability index [3] | protein stability index [4]
24 | PDFCHKFLPGYVGGIQEGAVTPAG [DHCR7] | 3.57 ± 0.32 | 3.6 ± 0.11 |  | 
25 | SSQKKDTSSSTVVSTQRSQDHFHV [TIA1] | 4.66 ± 0.21 | 4.64 ± 0.25 |  | 
26 | GLGVLRALGSRGWEPFDWGRLLEA [FANCE] | 2.88 ± 0.2 | 2.47 ± 0.042 |  | 
27 | YLHTVSDCDTSSICEDSFDGRSLS [SCARA5] | 4.37 ± 0.13 | 4.51 ± 0.14 |  | 
28 | PNIVVAIAGNKCDLIDVREVMERD [RAB22A] | 3.68 ± 0.14 | 3.68 ± 0.25 |  | 
29 | EAELRRRDTFYKEQLERIERKNAE [CHCHD6] | 5.1 ± 0.41 | 5.34 ± 0.28 |  | 
30 | LLSDGSNTLSVSYKKGRMMKDISN [SLC6A17] | 3.03 ± 0.27 | 3.35 ± 0.31 |  | 
31 | TKELDQWIEQLNECKQLSESQVKS [PPP2CA] | 4.71 ± 0.094 | 4.69 ± 0.12 |  | 
32 | NLAGFILGCQGAQFVSSVPRCDLV [FAM189A2] | 2.66 ± 0.59 | 2.58 ± 0.57 |  | 
33 | RPCRKFLLTGQCDFGSNCRFSHMS [ZMAT5] | 4.2 ± 0.74 | 4.28 ± 0.58 |  | 
34 | CKACITRWWEDLERDFPCPVCRKT [TRIM39] | 3.97 ± 0.27 | 4.25 ± 0.62 |  | 
35 | MGEDEDGLSEKNCQNKCRIALVEN [PLD5] | 5.14 ± 0.51 | 4.82 ± 0.11 |  | 
36 | ESFIKAIGVGLGFELQRLEFDLSP [AASDHPPT] | 2.89 ± 0.77 | 2.84 ± 0.64 |  | 
37 | VTHTEISPEQQFDRSVQRLLATRI [TMEM175] | 3.2 ± 0.28 | 3.34 ± 0.25 |  | 
38 | GSKNVFSTFRTPAVLFTGIVALYI [ATL3] | 3.11 ± 0.7 | 2.67 ± 0.57 |  | 
39 | VEIVKSDFHKPFLGGFRHKVTGVE [IQUB] | 2.17 ± 0.23 | 2.5 ± 0.39 |  | 
40 | VEGFRITLVDESDLYNWEVAIFGP [UBE2R2] | 2.84 ± 0.79 | 2.52 ± 0.68 |  | 
41 | TMDNKKGRRYEAVKWMVVFAIGVC [CLCN6] | 2.58 ± 0.35 | 2.64 ± 0.82 |  | 
42 | SSSSSSSSCYPLIPSTPEEVSADD [MAGEA10] | 5.46 ± 0.33 | 5.5 ± 0.14 |  | 
43 | TTSEEAVGGATLAQTTSEAAMEGA [HDAC6] | 5.59 ± 0.34 | 5.43 ± 0.31 |  | 
44 | DPDFKDLGALKPLPACEFEMGGSE [NETO1] | 5.24 ± 0.22 | 5.27 ± 0.2 |  | 
45 | AAFLALLRFLYSDEVQIGPETVMT [BTBD1] | 2.49 ± 0.78 | 2.14 ± 0.004 |  | 
46 | RNDKIKHVQNQVDEVIDVMQENIT [VAMP4] | 4.51 ± 0.33 | 4.4 ± 0.98 |  | 

Row | Sequence | protein stability index [1] | protein stability index [2] | protein stability index [3] | protein stability index [4]
47 | YVTTNVSLIPPRSEQLVNFTGKAE [TMEM106C] | 2.49 ± 0.57 | 2.8 ± 0.68 |  | 
48 | NNWYYISPRLTFQCLEDLVNHYSE [SLA] | 2.44 ± 0.35 | 2.23 ± 0.38 |  | 
49 | GKVLGKGGFAKCYEMTDLTNNKVY [PLK2] | 2.73 ± 0.11 | 2.87 ± 0.34 |  | 
50 | DEGFIKEEERPLPEKEYQRQVWLL [KCNA1] | 3.8 ± 0.28 | 3.73 ± 0.24 |  | 
51 | SIDFNKDGHIDINEFLEAFRLVEK [PPEF2] | 2.88 ± 0.17 | 3.32 ± 0.4 |  | 
52 | KQTREQLHSISDSVLFLQEFGALM [TRIM29] | 2.44 ± 0.52 | 2.36 ± 0.34 |  | 
53 | ISFDRYYKIVKPLWTSFIQSVSYS [P2RY14] | 3.63 ± 0.89 | 2.08 ± 0.7 |  | 
54 | ISVNGDVITIKSESTFKNTEISFI [FABP4] | 2.75 ± 1.1 | 2.11 ± 0.16 |  | 
55 | PEARYLFLLDVIPVDGARYRWQGR [TBX6] | 2.08 ± 0.27 | 2.09 ± 0.31 |  | 
56 | TVFRAILDYYKTGIIRCPDGISIP [BTBD10] | 3.01 ± 0.24 | 2.56 ± 0.43 |  | 
57 | RAKCRNMEHALREKAKAFWAMRRS [TRIM35] | 2.09 ± 0.36 | 2.3 ± 0.34 |  | 
58 | NVYPEMRVYNNTLTYGEVRNSKAS [GALNT9] | 3.94 ± 0.22 | 4.14 ± 0.3 |  | 
59 | LLNSPPSFVCWSRGFMEMNGRGEL [AUP1] | 2.1 ± 0.52 | 2.07 ± 0.46 |  | 
60 | LRGLCRPLRPLLGFRESDSAKPAS [C6orf223] | 3.31 ± 0.32 | 3.44 ± 0.23 |  | 
61 | LDKLRNEWASHTAALTNKHSQELT [SASS6] | 3.85 ± 0.33 | 3.83 ± 0.3 |  | 
62 | PEGSQDRNTSWGVVQEPPGRASRF [TLE6] | 4.83 ± 0.23 | 4.57 ± 0.14 |  | 
63 | LREENKALREENRMLSKENKILQV [CBY2] | 4.75 ± 0.12 | 4.69 ± 0.15 |  | 
64 | VAKLQESQPGNAVIDKETIDLLAF [SDE2] | 2.98 ± 0.48 | 3.29 ± 0.37 |  | 
65 | QTPQVNINPFTPDSLLLHSSGQCR [WEE1] | 3.6 ± 0.24 | 3.86 ± 0.34 |  | 
66 | SSHKQGHTSSEYDMLREMFSDSRS [TAF7L] | 4.11 ± 0.21 | 4.13 ± 0.26 |  | 
67 | ILLLDGAAWLTLWVFGTSFLPFLL [FADS1] | 2.91 ± 0.062 | 3.17 ± 0.46 |  | 
68 | LLETNPYLLALTIIVSIVHSVFEF [CLPTM1] | 3.08 ± 0.33 | 2.69 ± 0.13 |  | 
69 | QHYQQYMQQLYQVQLAQQQAALQK [ACBD3] | 2.23 ± 0.23 | 2.21 ± 0.23 |  | 

Row | Sequence | protein stability index [1] | protein stability index [2] | protein stability index [3] | protein stability index [4]
70 | GTYSQALNDAKRELRFLLVYLHGD [FAF2] | 2.41 ± 0.47 | 2.16 ± 0.32 |  | 
71 | GQGLKSYMTKPSKSLLPHLKTGNS [RTP4] | 3.62 ± 0.16 | 3.63 ± 0.25 |  | 
72 | PLMGETQERERVLTHFSRRYCQCN [PSD2] | 3.13 ± 0.38 | 3.62 ± 0.25 |  | 
73 | VATNSAGTRYSAPANLYVRELREV [PTPRD] | 3.05 ± 0.32 | 3.45 ± 0.37 |  | 
74 | KVLGELNILPNTQKVTCFYQPAPY [TENT5D] | 2.5 ± 0.23 | 2.16 ± 0.3 |  | 
75 | KERDLRDVGDWRKNIEEKSGMEGR [TNNI2] | 5.07 ± 0.25 | 5.15 ± 0.3 |  | 
76 | KRSWEEHVTHWMGQPFNSDDRNTA [DLC1] | 3.12 ± 0.47 | 3.52 ± 0.52 |  | 
77 | YSLASGAGGGGSKGNSLKRSKSIR [RAB40C] | 4.37 ± 0.17 | 4.41 ± 0.26 |  | 
78 | LGGIGFSSCIVCLFVGLYYNVIIG [SLC6A17] |  | 3.92 ± 0.088 |  | 
79 | QMNLLQKYSLLKLTALLEKYTPSN [DLC1] | 2.48 ± 0.55 | 2.41 ± 0.49 |  | 
80 | TDDRIVVPQRGRSTRVPVASVLI [SPNS1] |  |  | 2.64 ± 0.13 | 2.82 ± 0.42
81 | EDKENYKKFYEAFSKNLKLGIHED [HSP90AB1] | 4.08 ± 0.34 | 4.22 ± 0.25 |  | 
82 | LPLPLSLAPPPLPLPAAAVVHVSF [ZBTB22] | 2.34 ± 0.3 | 2.15 ± 0.17 |  | 
83 | LAARSGAAYGPGARGEDRAGPQSP [TSPAN10] | 5.15 ± 0.22 | 4.9 ± 0.09 |  | 
84 | ETYLQNHFAEEERSKYDYLMILRR [TENT5C] | 2.84 ± 0.1 | 3.13 ± 0.23 |  | 
85 | NESSLASTLKTLLFFTALMITVPI [VMA21] | 2.92 ± 0.19 | 3.07 ± 0.2 |  | 
86 | PGGGGSPGACPALGTKSCSSSCAV [RTN3] | 3.73 ± 0.42 | 4.07 ± 0.22 |  | 
87 | CWSRDGHKLVSASTDNIVSQWDVL [RBBP5] | 2.81 ± 0.12 | 2.87 ± 0.18 |  | 
88 | LIGDTLLVAPVLEPGKQERDVYLP [MYORG] | 3.23 ± 0.12 | 3.03 ± 0.22 |  | 
89 | AHGADPTHRLKDGSTMLIEAAKGG [ANKRD17] | 4.7 ± 0.31 | 4.91 ± 0.16 |  | 

From the supplement of paper PMC10567573
